For the data set the following is noted: Sus scrofa, pH 7, 20 °C, GdnHCl, Fluorescence, PIPES 50 mM, reversible: yes.

For “Phospholipase A2, major isoenzyme H70K, P00592”, where the note is “structure 1P2P”, the “ddG of mutation (higher = less stable)” value came out at 3.21 kcal/mol, the denaturant m value is 0.65 kcal/mol/M, the “denaturant midpoint (higher = more stable)” value (from here on “denaturant midpoint”) came to 5.2 M and the unfolding free energy worked out at 3.3 kcal/mol.

For the substance “Phospholipase A2, major isoenzyme H70N, P00592”, where the note is “structure 1P2P”, the “ddG of mutation (higher = less stable)” value is 2.28 kcal/mol, the denaturant m value amounted to 0.84 kcal/mol/M, the “denaturant midpoint” value amounted to 5.1 M and the unfolding free energy was 4.23 kcal/mol.

For “Phospholipase A2, major isoenzyme H70Q, P00592”, where the note is “structure 1P2P”, the “ddG of mutation (higher = less stable)” value came out at 1.03 kcal/mol, the denaturant m value amounted to 0.91 kcal/mol/M, the “denaturant midpoint” value amounted to 6.1 M and the unfolding free energy was found to be 5.48 kcal/mol.

Take “Phospholipase A2, major isoenzyme wild type, P00592”: the denaturant m value turned out to be 1 kcal/mol/M, the “denaturant midpoint” value was determined as 6.4 M and the unfolding free energy was 6.51 kcal/mol.

These data come from FireProtDB (doi:10.1093/protein/12.6.497).
